What all share (test): negative-stain EM
The target in assay [1] is GhV F S196C/A215C ectodomain (Ghanaian virus (GhV)).
Assay [2] has as its target GhV F I268F/Q287P ectodomain (Ghanaian virus (GhV)).
Assay [3] has as its target GhV F I268F/Q287P/S196C/A215C ectodomain (Ghanaian virus (GhV)).

The values below come from doi:10.1101/2023.08.20.554025.

With “GhV F S196C/A215C ectodomain (domain or fragment)”, the stoichiometry N (commonly the number of molecules, sites or subunits per partner or assembly) in assay [1] was 3.

Turning to “GhV F I268F/Q287P ectodomain (domain or fragment)”, the stoichiometry N in assay [2] came out at 3.

With “GhV F I268F/Q287P/S196C/A215C ectodomain (domain or fragment)”, the stoichiometry N in assay [3] amounted to 3.
